Reference: the supplement of paper PMC10567573
± gives the standard deviation.

Experiment: protein stability index of a GFP-peptide fusion (GPS, HEK-293T) (PSI 1-6); higher = more stable
[1] = treatment: DMSO, c terminus: a fixed tail appended
[2] = treatment: MLN4924 1 uM, 8 h, c terminus: a fixed tail appended
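Note: 24-mer peptide tiles fused after GFP, lentivirally expressed, FACS-sorted into six equal bins by GFP/DsRed ratio, decoded by Illumina sequencing, PSI is the read-weighted mean bin number.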

Sequence	protein stability index [1]	protein stability index [2]	protein stability index (treatment: DMSO, c terminus: native)	protein stability index (treatment: MLN4924 1 uM, 8 h, c terminus: native)
EPLQALLERASATLQDLVFDECGI [PRAME]	2.25 ± 0.2	2.67 ± 0.18	–	–
FLLLIVFYTAITKKIFKSHLKSSR [P2RY14]	2.69 ± 0.42	2.52 ± 0.65	–	–
ADGFGDNPFYHCLVAEILPAPGKL [SAT2]	2.27 ± 0.14	2.37 ± 0.42	–	–
RGDIFERIVHLQETCDLGKIKPEA [NLN]	3.59 ± 0.37	3.6 ± 0.29	–	–
KALAIILHLLYLLEKVECTPSQEH [FEM1A]	1.96 ± 0.35	1.99 ± 0.13	–	–
TPGLGVVAVLLLFLVVREPPRGAV [SPNS1]	2.69 ± 0.44	3.28 ± 0.6	–	–
VKQYLSTTLGPKLASQALTPPPGP [TFE3]	2.92 ± 0.19	2.93 ± 0.3	–	–
SSSPPGTPSPADAKAPPTACYAGA [CEBPB]	5.14 ± 0.14	4.91 ± 0.29	–	–
ARLKKVLIVGAPIWFRVPYSIISL [PTPN9]	3.32 ± 0.79	2.58 ± 1	–	–
QYRPSDLLCPETYVWVPIEQCLPS [ATE1]	2.28 ± 0.23	2.47 ± 0.28	–	–
SRSTSFRGGMGSGGLATGIAGGLA [KRT18]	3.3 ± 0.066	3.33 ± 0.37	–	–
PVTPQVGEGRKSRKFSRLSCLRRR [SMG5]	4.36 ± 0.068	4.34 ± 0.12	–	–
SEVKEELAGQKDELQLSDLLKQGY [PKD2L1]	4.81 ± 0.28	4.92 ± 0.24	–	–
SRLRFLNLGRMIDWVPVESLLRPL [ZER1]	2.16 ± 0.13	2.24 ± 0.25	–	–
DFVLEMNTAKSTSRVTAFLDDLSQ [NLN]	2.75 ± 0.26	2.72 ± 0.33	–	–
FEDLPLQEPQSPQKLNPGFDLAKG [PLAGL1]	5.03 ± 0.14	4.83 ± 0.19	–	–
VFDCLKDGMRNKETLEGREKAFIA [MED27]	3.88 ± 0.28	3.91 ± 0.25	–	–
KKGSNGYGFYLRAGSEQKGQIIKD [PDZK1]	3.19 ± 0.44	3.33 ± 0.27	–	–
LQEKSQCALEEYVRSQYPNQPTRF [NR2F2]	3.16 ± 0.25	3.24 ± 0.24	–	–
PIDQGPAIGRVRVLEEQLVKAKEQ [FUT8]	5 ± 0.16	5.09 ± 0.27	–	–
DCVDGLFKEVKEKFKGWVSYSTSE [DLC1]	3.04 ± 0.5	3.33 ± 0.3	–	–
GTNTVSFYTLSPNSHFSLNVKTLK [PCDHGC5]	2.4 ± 0.39	2.51 ± 0.21	–	–
NYRSFEPILRLLPQGISPVSQHWA [ZER1]	2 ± 0.27	2.09 ± 0.26	–	–

Sequence	protein stability index [1]	protein stability index [2]	protein stability index (treatment: DMSO, c terminus: native)	protein stability index (treatment: MLN4924 1 uM, 8 h, c terminus: native)
SEEKGHPQEESEESNVSMASLGEK [CHGB]	5.48 ± 0.21	5.61 ± 0.19	–	–
SQNIAAETRAEDPPWFEGLESRFQ [DFFB]	4.46 ± 0.13	4.49 ± 0.079	–	–
DDFDEDELMAELEELEQEELNKKM [CHMP4C]	5.16 ± 0.85	5.6 ± 0.3	–	–
ILLDPILMFFIMAAMLSMVKYNSC [POMT2]	3.27 ± 0.18	3.2 ± 0.05	–	–
DLYNWEVAIFGPPNTLYEGGYFKA [UBE2R2]	2.66 ± 0.4	2.32 ± 0.37	–	–
LIQDSPDSSTSPKGKQPTSAENSV [NANOGP8]	5.23 ± 0.11	5.17 ± 0.17	–	–
KTHTGEKPHRCHNCGKSFSRLTAL [ZNF449]	2.47 ± 0.12	2.67 ± 0.45	–	–
YSPSQYALQYAGDGSVLLIPRTMA [NFE2L1]	2.11 ± 0.22	2.26 ± 0.22	–	–
IKPAPARAPACSPEAAAAQLRATA [FCHO1]	3.53 ± 0.17	3.98 ± 0.13	–	–
FSSITDSTMSLNIITVTLNMEKYN [DVL3]	2.93 ± 0.63	2.75 ± 0.57	–	–
SNLTSNLASLVSQGMIQLALSGAS [RETREG3]	3.05 ± 0.12	3.15 ± 0.24	–	–
EKEESRREAEKQNYLAEHCPPLHI [TNNI2]	4.93 ± 0.17	4.94 ± 0.22	–	–
LCSVGASKAVFLWNMDKYTMIRKL [WSB1]	2.34 ± 0.4	2.17 ± 0.31	–	–
AGNDDSFGSLPSPKELSSFSFSMK [DLC1]	3.75 ± 0.2	3.87 ± 0.21	–	–
HFVDEHGKDQGINIRQKVKELVEF [CLINT1]	3.26 ± 0.23	3.83 ± 0.28	–	–
SSASEGDEDLRRQMQDDEQKTRLL [PALM]	5.51 ± 0.15	5.49 ± 0.19	–	–
ADQWKSSNKSLVEALGLEAEGAVP [RHOBTB1]	5.1 ± 0.17	4.83 ± 0.22	–	–
EVFEGREDSILGDPKKLLTQHFVQ [MAGEA3]	3.42 ± 0.49	3.29 ± 0.4	–	–
FDGPEAWGVCEPQREEVEERMWAA [ZER1]	3.43 ± 0.71	4 ± 0.53	–	–
PPETVQNWIELLSGETWNPLKLHY [GOLPH3]	2.17 ± 0.24	2.12 ± 0.21	–	–
DQERIKVERKRLRNRLAATKCRKR [JUNB]	4.83 ± 0.19	4.53 ± 0.17	–	–
MVVSREEVELAYQEAMFNMATLNR [SEPHS2]	2.93 ± 0.29	3.03 ± 0.2	–	–
TSGVVFTGLMVSLLCLLHFSIVSV [RTN2]	3 ± 0.53	3.07 ± 0.24	–	–

Sequence	protein stability index [1]	protein stability index [2]	protein stability index (treatment: DMSO, c terminus: native)	protein stability index (treatment: MLN4924 1 uM, 8 h, c terminus: native)
DYTWTEFDEPFLTRNVQSVSIIDT [TRIP13]	3.1 ± 0.24	3.19 ± 0.23	–	–
AGEGLPQVYYFGPCGKYNAMVLEL [CSNK1G1]	3.19 ± 0.65	2.65 ± 0.94	–	–
DSETLDLEEAEGAVGYQPEYSKFC [NFE2L1]	5.13 ± 0.34	5.01 ± 0.5	–	–
VDAAYANKVELQAKVESMDQEIKF [KRT71]	4.88 ± 0.41	4.87 ± 0.21	–	–
EVDEEGFTVRPDVTQNSTAEPSRF [FCHO1]	5.26 ± 0.13	5.26 ± 0.2	–	–
GGGGGGGGGGGGGGTSSNNSEEEE [ANKRD17]	5.42 ± 0.23	5.41 ± 0.31	–	–
TPDQKYSMDNTPHTPTPFKNALEK [MYBL2]	5 ± 0.2	5.22 ± 0.2	–	–
GVEVIVRISHTLYDLDKIIELNGG [CRY1]	3.29 ± 1.2	2.57 ± 0.76	–	–
ILAHLTGTEFMQDPDEEHLKKSSQ [PDLIM7]	3.9 ± 0.13	4.16 ± 0.25	–	–
AGTSSHGCWAWPLAGLSVGRSSLT [PXN]	2.5 ± 0.26	2.61 ± 0.26	–	–
EWVISTGHDKCVSWMCTRSGNMLG [WDFY1]	2.09 ± 0.37	2.01 ± 0.41	–	–
RGFMEMNGRGELVESLKRFCASTR [AUP1]	2.54 ± 0.3	2.73 ± 0.18	–	–
SKSTQFEYAWCLVRSKYNDDIRKG [FIS1]	2.26 ± 0.34	2.55 ± 0.56	–	–
KMVPRYDLNRHLDEMCANNDFVQV [FAN1]	2.81 ± 0.15	2.8 ± 0.46	–	–
MSGGGVIRGPAGNNDCRIYVGNLP [SRSF1]	2.85 ± 0.29	2.96 ± 0.51	–	–
RASFWLALVGCVISDNPERYSTNL [EDNRA]	2.85 ± 0.68	2.97 ± 0.62	–	–
ESTTKESSEASQLEDAAGGDSASE [FBXO34]	5.61 ± 0.34	5.71 ± 0.12	–	–
DTTTPTTSAITASRSESPPPLSDP [BRD3]	5.45 ± 0.42	5.57 ± 0.12	–	–
QNVARIPEFELLWKDIIHNPQALS [INTS3]	2.47 ± 0.34	2.53 ± 0.3	–	–
AMFTGGMKEQDLMCIKLHGVSKVG [KLHL13]	2.54 ± 0.42	2.58 ± 0.33	–	–
HDDGYMICCDKCSVWQHIDCMGID [KMT2E]	2.67 ± 0.29	2.92 ± 0.42	–	–
TARRSKRERREEDRAPAEQVPRSP [PWWP2B]	5.38 ± 0.26	5.16 ± 0.45	–	–
ESFRDLQLRLLQAPLQADLTEQVW [SCARA5]	2.59 ± 0.089	3.1 ± 0.4	–	–

Sequence	protein stability index [1]	protein stability index [2]	protein stability index (treatment: DMSO, c terminus: native)	protein stability index (treatment: MLN4924 1 uM, 8 h, c terminus: native)
FKKGKNPTGLLALQQIADFMTTNV [ADD1]	2 ± 0.23	2.61 ± 0.34	–	–
EDDRDGLLAEREQEEAIAQFPYVE [TMEM106C]	5.5 ± 0.19	5.64 ± 0.1	–	–
INRADYCPECYPDNPANRSLVLPW [TOR1AIP2]	2.29 ± 0.33	2.76 ± 0.55	–	–
PPPPIDNGDITSFLLSVYAPGSSV [CFHR2]	2.66 ± 0.33	2.65 ± 0.37	–	–
LYSSSLGGGVATSPMLIVFHGKYS [GLT8D2]	2.38 ± 0.48	2.44 ± 0.52	–	–
TWESKNILAVSFAPLVQPSKNDNG [PCMTD1]	3.3 ± 0.41	3.6 ± 0.51	–	–
DPKRRMTIAQSLEHSWIKAIRRRN [DAPK3]	3.67 ± 0.33	3.91 ± 0.35	–	–
HEWKSLAPMDAPRYQHGIAVIGNF [KLHL13]	2.22 ± 0.2	2.17 ± 0.26	–	–
QDGLPPTWRDFRTLEAFHDTCRQ [MED27]	–	–	4.16 ± 0.27	4.21 ± 0.4
VSLAVTLHRLKFLGFARRNWGNGK [GDAP1]	2.38 ± 0.41	2.33 ± 0.64	–	–
GEKPFKCHLCNYACRRRDALTGHL [IKZF1]	2.2 ± 0.12	2.51 ± 0.53	–	–
RIRIDDEPANLDILDTAGQAEFTA [RIT1]	4.62 ± 0.23	4.77 ± 0.11	–	–
EAQLLQLKVKCLNNLAASQLKLDH [FKBP8]	2.69 ± 0.26	2.95 ± 0.23	–	–
PQERTLTLVDTGIGMTKADLINNL [HSP90AB1]	3.49 ± 0.33	3.67 ± 0.26	–	–
YVPSSESFIIYLKNIVIADFVMSL [P2RY14]	2.89 ± 0.96	2.74 ± 0.78	–	–
ITKAFHVRKANRIKECLSKGTFSD [RHOBTB1]	2.7 ± 0.25	2.81 ± 0.51	–	–
DAFWWAVVTMTTVGYGDMHPVTIG [KCNA3]	3.67 ± 0.52	3.17 ± 0.31	–	–
LSMERYALVFGVNTFIALALQTLL [SLC19A2]	3.04 ± 0.22	2.93 ± 0.53	–	–
LFNILAKFNGITEKEYKTYKENFL [USP39]	2.16 ± 0.43	2.5 ± 0.25	–	–
QEHSNSVGGQDTGATWRTSGLLEE [C18orf25]	5.28 ± 0.27	4.96 ± 0.18	–	–
